In patent US7432342 (dated 2008):
Read-outs that look alike come from different tables or passages of the source. Ends that are not written are not given here.

Experiments:
PKA-RIIα-GFP [1] = target: PKA-RIIα-GFP (UniProt P13861)
PKA-RIα-GFP [2] = target: PKA-RIα-GFP (UniProt P10644)
PKA RIIα (full-length) [3] = target: T1, PKA RIIα (full-length) (mouse, UniProt P12367); assay: FP
PKA RIα (full-length) [4] = target: T2, PKA RIα (full-length) (bovine, UniProt P00514); assay: FP
PKA-RIα-GFP [5] = target: PKA-RIα-GFP (UniProt P10644); remark: listed apart in the source
PKA-RIIα-GFP [6] = target: PKA-RIIα-GFP (UniProt P13861); remark: listed apart in the source
PKA-RIα-GFP [7] = target: PKA-RIα-GFP (UniProt P10644); assay: SPR
PKA-RIα-GFP [8] = target: PKA-RIα-GFP (UniProt P10644); remark: listed apart in the source
PKA-RIIα-GFP [9] = target: PKA-RIIα-GFP (UniProt P13861); remark: listed apart in the source
PKA RIα (full-length) [10] = target: T2, PKA RIα (full-length); assay: FP; remark: listed apart in the source
PKA RIIα (full-length) [11] = target: T1, PKA RIIα (full-length); assay: FP; remark: listed apart in the source

Sequence of PKA-RIα-GFP (P10644 whole entry): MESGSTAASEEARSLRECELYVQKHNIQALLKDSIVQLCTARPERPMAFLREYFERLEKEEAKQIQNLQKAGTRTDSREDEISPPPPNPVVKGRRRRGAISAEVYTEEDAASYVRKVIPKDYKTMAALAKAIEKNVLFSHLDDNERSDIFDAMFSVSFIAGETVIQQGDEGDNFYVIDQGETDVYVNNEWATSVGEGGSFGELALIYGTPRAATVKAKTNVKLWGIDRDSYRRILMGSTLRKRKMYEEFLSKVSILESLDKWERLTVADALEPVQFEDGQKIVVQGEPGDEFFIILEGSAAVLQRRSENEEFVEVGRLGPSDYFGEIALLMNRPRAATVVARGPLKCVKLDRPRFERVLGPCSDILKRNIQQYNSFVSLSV
T1 sequence (P12367 2-401): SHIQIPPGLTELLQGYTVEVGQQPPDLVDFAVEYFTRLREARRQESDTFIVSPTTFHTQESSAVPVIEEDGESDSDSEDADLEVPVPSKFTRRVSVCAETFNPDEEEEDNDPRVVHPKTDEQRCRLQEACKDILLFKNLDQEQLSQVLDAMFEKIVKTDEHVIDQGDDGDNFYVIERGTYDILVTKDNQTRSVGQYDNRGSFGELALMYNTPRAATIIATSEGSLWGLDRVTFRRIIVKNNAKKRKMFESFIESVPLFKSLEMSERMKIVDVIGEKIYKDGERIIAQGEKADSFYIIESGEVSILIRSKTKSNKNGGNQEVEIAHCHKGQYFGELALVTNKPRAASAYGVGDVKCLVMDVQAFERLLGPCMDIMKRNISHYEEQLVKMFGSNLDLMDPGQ
Sequence of PKA-RIIα-GFP (P13861 2-404): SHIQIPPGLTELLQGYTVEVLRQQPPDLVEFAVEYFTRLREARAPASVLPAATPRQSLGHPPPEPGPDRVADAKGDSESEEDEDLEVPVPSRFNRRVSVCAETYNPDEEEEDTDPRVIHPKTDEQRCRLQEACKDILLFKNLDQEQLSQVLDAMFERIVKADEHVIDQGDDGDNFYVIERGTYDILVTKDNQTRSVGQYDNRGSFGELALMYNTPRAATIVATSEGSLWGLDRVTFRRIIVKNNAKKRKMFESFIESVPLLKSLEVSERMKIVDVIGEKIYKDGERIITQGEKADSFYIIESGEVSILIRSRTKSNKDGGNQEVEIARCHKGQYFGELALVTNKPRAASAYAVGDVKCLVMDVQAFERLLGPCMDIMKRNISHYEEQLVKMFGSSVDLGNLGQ
T2 sequence (P00514 2-380): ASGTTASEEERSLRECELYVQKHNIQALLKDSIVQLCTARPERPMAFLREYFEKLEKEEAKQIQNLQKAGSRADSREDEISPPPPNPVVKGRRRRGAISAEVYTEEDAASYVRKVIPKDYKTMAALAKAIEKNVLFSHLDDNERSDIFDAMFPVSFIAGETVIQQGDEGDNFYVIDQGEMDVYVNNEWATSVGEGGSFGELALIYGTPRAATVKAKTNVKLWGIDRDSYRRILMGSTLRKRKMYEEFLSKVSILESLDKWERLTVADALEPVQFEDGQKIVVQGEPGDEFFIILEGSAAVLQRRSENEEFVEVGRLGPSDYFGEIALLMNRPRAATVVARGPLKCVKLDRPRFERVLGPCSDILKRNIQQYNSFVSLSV

Question: Does VQGNTDEAQE [truncation SEQ 99] bind (PKA-RIIα-GFP [1])?
Answer: Result: no binding

Question: Does VQGNTDEAQE [truncation SEQ 99] bind (PKA-RIα-GFP [2])?
Answer: Result: no binding

Question: Does VQGNTDEAQEELAWKIAK [truncation SEQ 91] bind (PKA-RIIα-GFP [1])?
Answer: Result: no binding

Question: Does VQGNTDEAQEELAWKIAK [truncation SEQ 91] bind (PKA-RIα-GFP [2])?
Answer: Result: no binding

Question: QEEFAWKIAKMIISDVFQQC [PV-48] was tested. Which Kd (PKA RIIα (full-length) [3]) did it give?
Answer: Its Kd is 0.124 µM.

Question: And the Kd (PKA RIα (full-length) [4])?
Answer: Its Kd is 0.012 µM.

Question: Does KIAKMIVSDIMQQ [truncation SEQ 79] bind (PKA-RIα-GFP [5])?
Answer: Result: no binding

Question: Does KIAKMIVSDIMQQ [truncation SEQ 79] bind (PKA-RIIα-GFP [6])?
Answer: Result: no binding

Question: How did the Kd (PKA-RIα-GFP [7]) turn out when Ac-VQGNTDEAQEELAWKIAKMIVSDIMQQ [Ac-27mer Ile] was run?
Answer: The Kd was 0.86 µM.

Question: What does the source list for VQGNTDEAQEELAWKIAKM [truncation SEQ 90]?
Answer: binding result (PKA-RIIα-GFP [1]): no binding; binding result (PKA-RIα-GFP [2]): no binding

Question: With FEELAWKIAKMIWSDVMQQC [PV-37] as the binder, how does the Kd (PKA RIIα (full-length) [3]) read?
Answer: The Kd was 0.15 µM.

Question: And the Kd (PKA RIα (full-length) [4])?
Answer: The Kd was 0.019 µM.

Question: Does VQGNTDEAQEELAWKI [truncation SEQ 93] bind (PKA-RIIα-GFP [1])?
Answer: Result: no binding

Question: Does VQGNTDEAQEELAWKI [truncation SEQ 93] bind (PKA-RIα-GFP [2])?
Answer: Result: no binding

Question: Does VQGNTDEAQEELAWKIAKMI [truncation SEQ 89] bind (PKA-RIIα-GFP [1])?
Answer: Result: no binding

Question: Does VQGNTDEAQEELAWKIAKMI [truncation SEQ 89] bind (PKA-RIα-GFP [2])?
Answer: Result: no binding

Question: Does EELAWKIAK [truncation SEQ 12] bind (PKA-RIα-GFP [8])?
Answer: Result: no binding

Question: Does EELAWKIAK [truncation SEQ 12] bind (PKA-RIIα-GFP [9])?
Answer: Result: no binding

Question: What does the source list for VQGNTDEAQEE [truncation SEQ 98]?
Answer: binding result (PKA-RIIα-GFP [1]): no binding; binding result (PKA-RIα-GFP [2]): no binding

Question: What does the source list for VQGNTDEAQEELLWKIAKMIVSDVMQQC (also: fluorescently labeled) [AKB(RII)]?
Answer: Kd (PKA RIα (full-length) [10]): 2.49 µM; Kd (PKA RIIα (full-length) [11]): 0.0027 µM

Question: How did the Kd (PKA RIIα (full-length) [3]) turn out when QEEFAWKIAKMIVSDVFQQC [PV-47] was run?
Answer: Its Kd is 0.089 µM.

Question: What about the Kd (PKA RIα (full-length) [4]) of the same binder?
Answer: Its Kd is 0.039 µM.

Question: Does VQGNTDEAQEELAWK [truncation SEQ 94] bind (PKA-RIIα-GFP [1])?
Answer: Result: no binding

Question: Does VQGNTDEAQEELAWK [truncation SEQ 94] bind (PKA-RIα-GFP [2])?
Answer: Result: no binding

Question: Does ELAWKIA [truncation SEQ 13] bind (PKA-RIα-GFP [8])?
Answer: Result: no binding

Question: Does ELAWKIA [truncation SEQ 13] bind (PKA-RIIα-GFP [9])?
Answer: Result: no binding

Question: Does VQGNTDEAQEELAWKIAKMIV [truncation SEQ 88] bind (PKA-RIα-GFP [2])?
Answer: Result: no binding

Question: What does the source list for VQGNTDEAQEELAWKIAKMIVSDVMQQC(tetramethylrhodamine) [AKB(dual) WT]?
Answer: Kd (PKA RIα (full-length) [10]): 0.048 µM; Kd (PKA RIIα (full-length) [3]): 0.0022 µM; Kd (PKA RIα (full-length) [4]): 0.048 µM; Kd (PKA RIIα (full-length) [11]): 0.0022 µM

Question: What does the source list for AKMIVSDIMQQ [truncation SEQ 81]?
Answer: binding result (PKA-RIα-GFP [5]): no binding; binding result (PKA-RIIα-GFP [6]): no binding

Question: Which results are given for VQGNTDEAQEELAWKIAKMIWSDVMQQC [V21W]?
Answer: Kd (PKA RIIα (full-length) [3]): 0.083 µM; Kd (PKA RIα (full-length) [4]): 0.12 µM

Question: Does VQGNTDEAQEEL [truncation SEQ 97] bind (PKA-RIIα-GFP [1])?
Answer: Result: no binding

Question: Does VQGNTDEAQEEL [truncation SEQ 97] bind (PKA-RIα-GFP [2])?
Answer: Result: no binding

Question: What does the source list for Ac-DLAWKIAKMIVSDVMQQC [Ac-DLAWKIAKMIVSDVMQQC]?
Answer: Kd (PKA RIIα (full-length) [3]): 0.107 µM; Kd (PKA RIα (full-length) [4]): 0.773 µM

Question: Does VQGNTDEAQEELA [truncation SEQ 96] bind (PKA-RIIα-GFP [1])?
Answer: Result: no binding

Question: Does VQGNTDEAQEELA [truncation SEQ 96] bind (PKA-RIα-GFP [2])?
Answer: Result: no binding

Question: Does VQGNTDEAQEELAWKIA [truncation SEQ 92] bind (PKA-RIIα-GFP [1])?
Answer: Result: no binding

Question: Does VQGNTDEAQEELAWKIA [truncation SEQ 92] bind (PKA-RIα-GFP [2])?
Answer: Result: no binding

Question: Does VQGNTDEAQEELAW [truncation SEQ 95] bind (PKA-RIIα-GFP [1])?
Answer: Result: no binding

Question: Does VQGNTDEAQEELAW [truncation SEQ 95] bind (PKA-RIα-GFP [2])?
Answer: Result: no binding

Question: Does KMIVSDIMQQ [truncation SEQ 82] bind (PKA-RIα-GFP [5])?
Answer: Result: no binding

Question: Does KMIVSDIMQQ [truncation SEQ 82] bind (PKA-RIIα-GFP [6])?
Answer: Result: no binding

Question: Does AWKIAKMIVSDIMQQ [truncation SEQ 77] bind (PKA-RIα-GFP [5])?
Answer: Result: no binding

Question: Does IAKMIVSDIMQQ [truncation SEQ 80] bind (PKA-RIα-GFP [5])?
Answer: Result: no binding

Question: Does IAKMIVSDIMQQ [truncation SEQ 80] bind (PKA-RIIα-GFP [6])?
Answer: Result: no binding

Question: For Ac-VQGNTDEAQEELAWKIAKMIVSDVMQQ-NH2 [Ac-27mer Val], which Kd (PKA-RIα-GFP [7]) is on record?
Answer: The Kd was 0.5 µM.

Question: For FEELAWKIAKMIWSDVFQQC [AKB(RI) PV-38], which Kd (PKA RIα (full-length) [10]) is on record?
Answer: Its Kd is 0.0052 µM.

Question: What about the Kd (PKA RIIα (full-length) [3]) of the same binder?
Answer: The Kd was 0.456 µM.

Question: What about the Kd (PKA RIα (full-length) [4]) of the same binder?
Answer: Its Kd is 0.0052 µM.

Question: And the Kd (PKA RIIα (full-length) [11])?
Answer: The Kd was 0.456 µM.

Question: Does EAQEELAWKIAKMIV [truncation SEQ 4] bind (PKA-RIα-GFP [8])?
Answer: Result: no binding

Question: Does WKIAKMIVSDIMQQ [truncation SEQ 78] bind (PKA-RIα-GFP [5])?
Answer: Result: no binding

Question: Does WKIAKMIVSDIMQQ [truncation SEQ 78] bind (PKA-RIIα-GFP [6])?
Answer: Result: no binding

Question: Does AQEELAWKIAKMI [truncation SEQ 10] bind (PKA-RIα-GFP [8])?
Answer: Result: no binding

Question: Does AQEELAWKIAKMI [truncation SEQ 10] bind (PKA-RIIα-GFP [9])?
Answer: Result: no binding

Question: Does QEELAWKIAKM [truncation SEQ 11] bind (PKA-RIα-GFP [8])?
Answer: Result: no binding

Question: Does QEELAWKIAKM [truncation SEQ 11] bind (PKA-RIIα-GFP [9])?
Answer: Result: no binding

Question: Does VQGNTDEAQEELAWKIAKMIVS [truncation SEQ 87] bind (PKA-RIα-GFP [2])?
Answer: Result: no binding

Question: Does VQGNTDEAQEELAWKIAKMIVSD [truncation SEQ 86] bind (PKA-RIα-GFP [2])?
Answer: Result: no binding

Question: Does DEAQEELAWKIAKMIVS [truncation SEQ 9] bind (PKA-RIα-GFP [8])?
Answer: Result: no binding

Question: Does TDEAQEELAWKIAKMIVSD [truncation SEQ 8] bind (PKA-RIα-GFP [8])?
Answer: Result: no binding

Question: Does LAWKIAKMIVSDIMQQ [truncation SEQ 76] bind (PKA-RIα-GFP [5])?
Answer: Result: no binding

Question: How did the Kd (PKA RIIα (full-length) [3]) turn out when FEELAWKIAKMIISDVFQQC [PV-49] was run?
Answer: The Kd was 0.0025 µM.

Question: And the Kd (PKA RIα (full-length) [4])?
Answer: Its Kd is 0.0011 µM.

Question: For VQGNTDEAQEELAWKIEKMIWSDVMQQC (also: fluorescently labeled) [AKB(null)], which Kd (PKA RIα (full-length) [10]) is on record?
Answer: The Kd was 0.998 µM.

Question: What about the Kd (PKA RIIα (full-length) [11]) of the same binder?
Answer: The Kd was greater than 10 µM.
